According to paper PMC3817168:

Molecular target: ChrB-His6 (Ochrobactrum tritici 5bvl1)
Assay: cross-linking; 8 µg purified protein, 0.1% glutaraldehyde, 20 mM NaCl, 10 mM KCl, 2 mM DTT, 20 mM Hepes pH 7.5, 30°C, 2 to 60 min; read by 10% SDS-PAGE or anti-His immunoblot; also with chr promoter DNA and/or Cr(VI), without effect

Work on ChrB-His6 (natural protein) yielded a stoichiometry N of 2.
